Measurements: article PMC4333385

System: Nc1ncnc2c1ncn2[C@@H]1O[C@H](COP(=O)(O)OP(=O)(O)OP(=O)(O)O)[C@@H](O)[C@H]1O
Assay: steady-state Pi release, MDCC-PBP stopped-flow, Hill fit
Format: biochemical, Escherichia coli
Conditions: DNA-free RecQ, SF50 buffer pH 7.5, 5 mM MgCl2, 50 mM NaCl, 25 °C, Hill coefficient 1.3
Description: steady-state Pi release, MDCC-PBP stopped-flow, Hill fit on E. coli RecQ helicase

E. coli RecQ helicase (Escherichia coli K-12)
K0.5: 28 ± 2 µM | kcat: 0.53 ± 0.05 s⁻¹
